Results published in patent US20080248995, “Modulation of PPARgamma2 gene promoter by FOXO1” (Technion Research and Development Foundation Ltd., published 2008).

T1: FOXO1 (FLAG-tagged, full-length) (Homo sapiens, UniProt Q12778 SEQ:126-780)
T1 chain: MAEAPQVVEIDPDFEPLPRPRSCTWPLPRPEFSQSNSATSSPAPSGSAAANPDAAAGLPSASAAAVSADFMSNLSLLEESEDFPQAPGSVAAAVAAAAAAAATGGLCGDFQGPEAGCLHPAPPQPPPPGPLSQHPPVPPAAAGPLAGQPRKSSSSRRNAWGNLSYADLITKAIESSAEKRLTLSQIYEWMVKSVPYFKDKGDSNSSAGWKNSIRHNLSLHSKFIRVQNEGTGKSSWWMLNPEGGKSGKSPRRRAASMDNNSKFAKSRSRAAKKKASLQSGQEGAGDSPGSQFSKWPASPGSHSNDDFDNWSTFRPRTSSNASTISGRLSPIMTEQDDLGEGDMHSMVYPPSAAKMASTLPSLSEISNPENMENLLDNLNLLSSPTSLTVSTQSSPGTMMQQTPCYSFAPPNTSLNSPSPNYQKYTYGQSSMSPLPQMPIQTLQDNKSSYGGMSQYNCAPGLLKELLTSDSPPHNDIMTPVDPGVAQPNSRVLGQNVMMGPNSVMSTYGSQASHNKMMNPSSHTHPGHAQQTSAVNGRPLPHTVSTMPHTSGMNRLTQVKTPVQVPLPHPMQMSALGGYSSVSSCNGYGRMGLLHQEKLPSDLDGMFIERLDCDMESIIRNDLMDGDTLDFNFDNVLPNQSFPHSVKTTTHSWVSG

B1: hPPARγ2 promoter bp 270-310 (dsDNA)
DNA 1: GACACTGAACATGTGGGTCACCGGCGAGACAGTGTGGCAA
DNA 2: TTGCCACACTGTCTCGCCGGTGACCCACATGTTCAGTGTC

How the values were obtained:
[1] = molecular target: FOXO1 (FLAG-tagged, transfected) (Homo sapiens) (UniProt Q12778); assay: cell_activity; settings: 3xIRS-LUC in primary rat adipocytes, data not shown
[2] = molecular target: T1, FOXO1 (FLAG-tagged, full-length); assay: EMSA; competed by 100x and 200x unlabeled probe; supershift with anti-FLAG and anti-FOXO1 H-128, not N-18; 50 mM KCl, 1 mM EDTA, pH 7.9, poly(dI-dC), 25 C; settings: tags: FLAG; TnT reticulocyte lysate; label: 32P
Procedure: (vi) In vitro Translation and Electrophoretic Mobility Shift Assay (EMSA)—In vitro translation of FOXO1 proteins and EMSA studies were performed as described (Armoni et al., 2003). The TnT SP6/T7-coupled reticulocyte lysate system (Promega, Madison Wis.) was used to generate in vitro translated FLAG-tagged FOXO1 proteins from the corresponding cDNA, and the resulting protein lysate was used in EMSA. Protein expression was confirmed by SDS-PAGE, followed by phosphorimaging analysis of proteins translated in the presence of ³⁵S-methionine (cell labeling grade; Amersham, Buckinghamshire, UK). In vitro translation reactions generated sufficient protein to use in EMSA studies. Sense and antisense PPARγ promoter-derived oligonucleotides were synthesized that correspond to bp 270-310 of hG2-587 (sense: […] TGGGT […]) (SEQ ID NO: 4); these were annealed and end-labeled with γ-³²P-ATP (6000 Ci/mmol; Amersham, Buckinghamshire, UK) in the presence of polynucleotide kinase. Protein-DNA binding reactions were assembled in a total volume of 20 μl, which included 4 μl of the in vitro translated FOXO1 lysate, radiolabeled probe (˜75,000 cpm), and 4 μg of poly(dI-dC) in a buffer containing 10 mM HEPES (pH 7.9), 1 mM dithiothreitol, 1 mM EDTA, 4% Ficoll, and 50 mM KCl. […] Gels were fixed in 10% acetic acid for 15 min, dried, and analyzed by phosphorimaging.

Row | Molecule | activity (fold activation) [1] | binding result [2]
1 | 3xIRS (three insulin response element repeats) in pGL2-LUC | < 8.5 | –
2 | B1 | – | binds
